Data from publication PMC9483561.

Target: integrin α5β1 headpiece (α5 F1–L609/β1 Q1–E481) (UniProt P05556)
Experiment: fluorescence polarisation

| Kd [nM] | Substance |
| --- | --- |
| 30 | fibronectin fragment Fn7–10 (P1142–T1509) (from UniProt P02751-1 1173-1540) (domain or fragment) |
| 30 | fibronectin fragment Fn9–10 (G1326–T1509) (from UniProt P02751-1 1357-1540) (domain or fragment) |
